Results taken from the supplement of paper PMC5998384.

Assays:
HeLa Kyoto [1] = assay: melting temperature (median over replicates), in situ; higher = more thermally stable
HeLa Kyoto [2] = assay: thermal stability score vs G1/S (z-score of summed log2 fold changes over temperatures); higher = more thermally stable than in G1/S
[3] = cell cycle stage: early G1 (4.5 h after nocodazole release)
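Wherever melting temperature (median over replicates), in situ is given: HeLa Kyoto cells synchronized by double thymidine or nocodazole block, proteins quantified by TMT10plex mass spectrometry, three independent biological replicates.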
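Wherever thermal stability score vs G1/S (z-score of summed log2 fold changes over temperatures) is given: synchronized HeLa Kyoto cells, proteins quantified by TMT10plex mass spectrometry, three biological replicates, mitosis taken 0.5 h after nocodazole release, G1/S directly after double thymidine block.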

Sequence of LSM5 (chain, as listed by the source): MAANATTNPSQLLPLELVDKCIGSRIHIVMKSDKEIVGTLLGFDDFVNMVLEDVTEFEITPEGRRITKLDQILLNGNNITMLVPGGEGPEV

| Substance | melting temperature (HeLa Kyoto [1]; cell cycle stage: G1/S) [°C] | melting temperature (HeLa Kyoto [1]; cell cycle stage: mitosis) [°C] | thermal stability score (HeLa Kyoto [2]; [3]) | thermal stability score (HeLa Kyoto [2]; cell cycle stage: mitosis) |
| --- | --- | --- | --- | --- |
| LSM5 | 55.9 | 52.9 | -2.66 | -1.99 |
| MEAVVNLYQEVMKHADPRIQGYPLMGSPLLMTSILLTYVYFVLSLGPRIMANRKPFQLRGFMIVYNFSLVALSLYIVYEFLMSGWLSTYTWRCDPVDYSNSPEALRMVRVAWLFLFSKFIELMDTVIFILRKKDGQVTFLHVFHHSVLPWSWWWGVKIAPGGMGSFHAMINSSVHVIMYLYYGLSAFGPVAQPYLWWKKHMTAIQLIQFVLVSLHISQYYFMSSCNYQYPVIIHLIWMYGTIFFMLFSNFWYHSYTKGKRLPRALQQNGAPGIAKVKAN [ELOVL1] | 52.8 | 52.4 | 2.04 | 1.9 |
| MSGGRAPAVLLGGVASLLLSFVWMPALLPVASRLLLLPRVLLTMASGSPPTQPSPASDSGSGYVPGSVSAAFVTCPNEKVAKEIARAVVEKRLAACVNLIPQITSIYEWKGKIEEDSEVLMMIKTQSSLVPALTDFVRSVHPYEVAEVIALPVEQGNFPYLQWVRQVTESVSDSITVLP [CUTA] | 57.7 | 54.8 | -1.46 | -1.38 |
| MEVVEAAAAQLETLKFNGTDFGVGEGPAAPSPGSAPVPGTQPPLQSFEGSPDAGQTVEVKPAGEQPLQPVLNAVAAGTPAPQPQPPAESPACGDCVTSPGAAEPARAPDSLETSDSDSDSDSETDSDSSSSSSSSSSSSSSSSSSCISLPPVLSDGDDDLQIEKENKNFPLKTKDELLLNELPSVEELTIILPEDIELKPLGMVSSIIEQLVIIESMTNLPPVNEETVIFKSDRQAAGKIFEIFGPVAHPFYVLRFNSSDHIESKGIKIKETMYFAPSMKDFTQYIFTEKLKQDKGSDASWKNDQEPPPEALDFSDDEKEKEAKQRKKSQIQGRKKLKSEFNEPGEDFTEVHQNWNAHSSASEHAKGYRNREFTRGFSRARYPRSCHGRPPPQHFYNSEHMVSQETSGFPSQRQNNPIMPQYPFPLPVFDMHNFPLRPPPPPPPPPVNMGWATPNMAAHPLLNLPYSLPPPPPPPPLPPPPSSGDSNSHFGPYY [NAF1] | 52 | 52.1 | 0.0445 | -1.83 |
| MGRSRSRSPRRERRRSRSTSRERERRRRERSRSRERDRRRSRSRSPHRRRSRSPRRHRSTSPSPSRLKERRDEEKKETKETKSKERQITEEDLEGKTEEEIEMMKLMGFASFDSTKGKKVDGSVNAYAINVSQKRKYRQYMNRKGGFNRPLDFIA [SNRNP27] | 54 | 53.3 | 1.03 | 0.903 |
| MAALGGDGLRLLSVSRPERPPESAALGGLGPGLCCWVSVFSCLSLACSYVGSLYVWKSELPRDHPAVIKRRFTSVLVVSSLSPLCVLLWRELTGIQPGTSLLTLMGFRLEGIFPAALLPLLLTMILFLGPLMQLSMDCPCDLADGLKVVLAPRSWARCLTDMRWLRNQVIAPLTEELVFRACMLPMLAPCMGLGPAVFTCPLFFGVAHFHHIIEQLRFRQSSVGNIFLSAAFQFSYTAVFGAYTAFLFIRTGHLIGPVLCHSFCNYMGFPAVCAALEHPQRRPLLAGYALGVGLFLLLLQPLTDPKLYGSLPLCVLLERAGDSEAPLCS [RCE1] | – | 55.3 | -0.209 | -0.247 |
| MESALAVPRLPPHDPGTPVLSVVDMHTGGEPLRIVLAGCPEVSGPTLLAKRRYMRQHLDHVRRRLMFEPRGHRDMYGAVLVPSELPDAHLGVLFLHNEGYSSMCGHAVLALGRFALDFGLVPAPPAGTREARVNIHCPCGLVTAFVACEDGRSHGPVRFHSVPAFVLATDLMVDVPGHGKVMVDIAYGGAFYAFVTAEKLGLDICSAKTRDLVDAASAVTEAVKAQFKINHPDSEDLAFLYGTILTDGKDAYTKEPTTNICVFADEQVDRSPTGSGVTARIALQYHKGLLELNQMRAFKSSATGSVFTGKAVREAKCGDFKAVIVEVSGQAHYTGTASFIIEDDDPLRDGFLLK [L3HYPDH] | 55.6 | 54.4 | 0.886 | 0.62 |
| MYH14 | 53.1 | 52.2 | -0.174 | -1.24 |
| MRRGERRDAGGPRPESPVPAGRASLEEPPDGPSAGQATGPGEGRRSTESEVYDDGTNTFFWRAHTLTVLFILTCTLGYVTLLEETPQDTAYNTKRGIVASILVFLCFGVTQAKDGPFSRPHPAYWRFWLCVSVVYELFLIFILFQTVQDGRQFLKYVDPKLGVPLPERDYGGNCLIYDPDNETDPFHNIWDKLDGFVPAHFLGWYLKTLMIRDWWMCMIISVMFEFLEYSLEHQLPNFSECWWDHWIMDVLVCNGLGIYCGMKTLEWLSLKTYKWQGLWNIPTYKGKMKRIAFQFTPYSWVRFEWKPASSLRRWLAVCGIILVFLLAELNTFYLKFVLWMPPEHYLVLLRLVFFVNVGGVAMREIYDFMDDPKPHKKLGPQAWLVAAITATELLIVVKYDPHTLTLSLPFYISQCWTLGSVLALTWTVWRFFLRDITLRYKETRWQKWQNKDDQGSTVGNGDQHPLGLDEDLLGPGVAEGEGAPTPN [PTDSS2] | – | – | -0.906 | -3.56 |
| MDDSGELGGLETMETLTELGDELTLGDIDEMLQFVSNQVGEFPDLFSEQLCSSFPGSGGSGSSSGSSGSSSSSSNGRGSSSGAVDPSVQRSFTQVTLPSFSPSAASPQAPTLQVKVSPTSVPTTPRATPILQPRPQPQPQPQTQLQQQTVMITPTFSTTPQTRIIQQPLIYQNAATSFQVLQPQVQSLVTSSQVQPVTIQQQVQTVQAQRVLTQTANGTLQTLAPATVQTVAAPQVQQVPVLVQPQIIKTDSLVLTTLKTDGSPVMAAVQNPALTALTTPIQTAALQVPTLVGSSGTILTTMPVMMGQEKVPIKQVPGGVKQLEPPKEGERRTTHNIIEKRYRSSINDKIIELKDLVMGTDAKMHKSGVLRKAIDYIKYLQQVNHKLRQENMVLKLANQKNKLLKGIDLGSLVDNEVDLKIEDFNQNVLLMSPPASDSGSQAGFSPYSIDSEPGSPLLDDAKVKDEPDSPPVALGMVDRSRILLCVLTFLCLSFNPLTSLLQWGGAHDSDQHPHSGSGRSVLSFESGSGGWFDWMMPTLLLWLVNGVIVLSVFVKLLVHGEPVIRPHSRSSVTFWRHRKQADLDLARGDFAAAAGNLQTCLAVLGRALPTSRLDLACSLSWNVIRYSLQKLRLVRWLLKKVFQCRRATPATEAGFEDEAKTSARDAALAYHRLHQLHITGKLPAGSACSDVHMALCAVNLAECAEEKIPPSTLVEIHLTAAMGLKTRCGGKLGFLASYFLSRAQSLCGPEHSAVPDSLRWLCHPLGQKFFMERSWSVKSAAKESLYCAQRNPADPIAQVHQAFCKNLLERAIESLVKPQAKKKAGDQEEESCEFSSALEYLKLLHSFVDSVGVMSPPLSRSSVLKSALGPDIICRWWTSAITVAISWLQGDDAAVRSHFTKVERIPKALEVTESPLVKAIFHACRAMHASLPGKADGQQSSFCHCERASGHLWSSLNVSGATSDPALNHVVQLLTCDLLLSLRTALWQKQASASQAVGETYHASGAELAGFQRDLGSLRRLAHSFRPAYRKVFLHEATVRLMAGASPTRTHQLLEHSLRRRTTQSTKHGEVDAWPGQRERATAILLACRHLPLSFLSSPGQRAVLLAEAARTLEKVGDRRSCNDCQQMIVKLGGGTAIAAS [SREBF2] | – | – | 7.8e-18 | 1.52e-16 |
| MNCRSEVLEVSVEGRQVEEAMLAVLHTVLLHRSTGKFHYKKEGTYSIGTVGTQDVDCDFIDFTYVRVSSEELDRALRKVVGEFKDALRNSGGDGLGQMSLEFYQKKKSRWPFSDECIPWEVWTVKVHVVALATEQERQICREKVGEKLCEKIINIVEVMNRHEYLPKMPTQSEVDNVFDTGLRDVQPYLYKISFQITDALGTSVTTTMRRLIKDTLAL [ATG101] | – | – | 0.111 | 1.17 |
| MKSLVLLLCLAQLWGCHSAPHGPGLIYRQPNCDDPETEEAALVAIDYINQNLPWGYKHTLNQIDEVKVWPQQPSGELFEIEIDTLETTCHVLDPTPVARCSVRQLKEHAVEGDCDFQLLKLDGKFSVVYAKCDSSPDSAEDVRKVCQDCPLLAPLNDTRVVHAAKAALAAFNAQNNGSNFQLEEISRAQLVPLPPSTYVEFTVSGTDCVAKEATEAAKCNLLAEKQYGFCKATLSEKLGGAEVAVTCMVFQTQPVSSQPQPEGANEAVPTPVVDPDAPPSPPLGAPGLPPAGSPPDSHVLLAAPPGHQLHRAHYDLRHTFMGVVSLGSPSGEVSHPRKTRTVVQPSVGAAAGPVVPPCPGRIRHFKV [AHSG] | – | – | -0.0372 | -0.632 |
| MAAQGEPGYLAAQSDPGSNSERSTDSPVPGSEDDLVAGATLHSPEWSEERFRVDRKKLEAMLQAAAEGKGRSGEDFFQKIMEETNTQIAWPSKLKIGAKSKKDPHIKVSGKKEDVKEAKEMIMSVLDTKSNRVTLKMDVSHTEHSHVIGKGGNNIKKVMEETGCHIHFPDSNRNNQAEKSNQVSIAGQPAGVESARVRIRELLPLVLMFELPIAGILQPVPDPNSPSIQHISQTYNISVSFKQRSRMYGATVIVRGSQNNTSAVKEGTAMLLEHLAGSLASAIPVSTQLDIAAQHHLFMMGRNGSNIKHIMQRTGAQIHFPDPSNPQKKSTVYLQGTIESVCLARQYLMGCLPLVLMFDMKEEIEVDPQFIAQLMEQLDVFISIKPKPKQPSKSVIVKSVERNALNMYEARKCLLGLESSGVTIATSPSPASCPAGLACPSLDILASAGLGLTGLGLLGPTTLSLNTSTTPNSLLNALNSSVSPLQSPSSGTPSPTLWAPPLANTSSATGFSAIPHLMIPSTAQATLTNILLSGVPTYGHTAPSPPPGLTPVDVHINSMQTEGKKISAALNGHAQSPDIKYGAISTSSLGEKVLSANHGDPSIQTSGSEQTSPKSSPTEGCNDAFVEVGMPRSPSHSGNAGDLKQMMCPSKVSCAKRQTVELLQGTKNSHLHSTDRLLSDPELSATESPLADKKAPGSERAAERAAAAQQNSERAHLAPRSSYVNMQAFDYEQKKLLATKAMLKKPVVTEVRTPTNTWSGLGFSKSMPAETIKELRRANHVSYKPTMTTTYEGSSMSLSRSNSREHLGGGSESDNWRDRNGIGPGSHSEFAASIGSPKRKQNKSTEHYLSSSNYMDCISSLTGSNGCNLNSSFKGSDLPELFSKLGLGKYTDVFQQQEIDLQTFLTLTDQDLKELGITTFGARRKMLLAISELNKNRRKLFESPNARTSFLEGGASGRLPRQYHSDIASVSGRW [BICC1] | – | – | -0.0285 | 0.296 |
| MALCEAAGCGSALLWPRLLLFGDSITQFSFQQGGWGASLADRLVRKCDVLNRGFSGYNTRWAKIILPRLIRKGNSLDIPVAVTIFFGANDSALKDENPKQHIPLEEYAANLKSMVQYLKSVDIPENRVILITPTPLCETAWEEQCIIQGCKLNRLNSVVGEYANACLQVAQDCGTDVLDLWTLMQDSQDFSSYLSDGLHLSPKGNEFLFSHLWPLIEKKVSSLPLLLPYWRDVAEAKPELSLLGDGDH [IAH1] | – | – | 0.993 | -0.17 |
| MAAAVAAALARLLAAFLLLAAQVACEYGMVHVVSQAGGPEGKDYCILYNPQWAHLPHDLSKASFLQLRNWTASLLCSAADLPARGFSNQIPLVARGNCTFYEKVRLAQGSGARGLLIVSRERLVPPGGNKTQYDEIGIPVALLSYKDMLDIFTRFGRTVRAALYAPKEPVLDYNMVIIFIMAVGTVAIGGYWAGSRDVKKRYMKHKRDDGPEKQEDEAVDVTPVMTCVFVVMCCSMLVLLYYFYDLLVYVVIGIFCLASATGLYSCLAPCVRRLPFGKCRIPNNSLPYFHKRPQARMLLLALFCVAVSVVWGVFRNEDQWAWVLQDALGIAFCLYMLKTIRLPTFKACTLLLLVLFLYDIFFVFITPFLTKSGSSIMVEVATGPSDSATREKLPMVLKVPRLNSSPLALCDRPFSLLGFGDILVPGLLVAYCHRFDIQVQSSRVYFVACTIAYGVGLLVTFVALALMQRGQPALLYLVPCTLVTSCAVALWRRELGVFWTGSGFAKVLPPSPWAPAPADGPQPPKDSATPLSPQPPSEEPATSPWPAEQSPKSRTSEEMGAGAPMREPGSPAESEGRDQAQPSPVTQPGASA [SPPL2B] | – | – | 0.962 | -2.37 |
